From patent US9359634B2, “Fast reaction kinetics of enzymes having low activity in dry chemistry layers” (Roche Diabetes Care, Inc., priority 2009, dated 2016)
Like-named read-outs stand apart in the source and are kept apart here.

B1: WT-GlucDH: wild type (native) glucose dehydrogenase from Bacillus subtilis (protein, listed as Bacillus subtilis)
chain: MYPDLKGKVVAITGAASGLGKAMAIRFGKEQAKVVINYYSNKQDPNEVKEEVIKAGGEAVVVQGDVTKEEDVKNIVQTAIKEFGTLDIMINNAGLENPVPSHEMPLKDWDKVIGTNLTGAFLGSREAIKYFVENDIKGNVINMSSVHEVIPWPLFVHYAASKGGIKLMTETLALEYAPKGIRVNNIGPGAINTPINAEKFADPKQKADVESMIPMGYIGEPEEIAAVAVWLASKESSYVTGITLFADGGMTKYPSFQAGRG
B2: GlucDH_E170K (protein, UniProt P12310 1-261, looked up, variant E170K)
Glucose 1-dehydrogenase: MYPDLKGKVVAITGAASGLGKAMAIRFGKEQAKVVINYYSNKQDPNEVKEEVIKAGGEAVVVQGDVTKEEDVKNIVQTAIKEFGTLDIMINNAGLENPVPSHEMPLKDWDKVIGTNLTGAFLGSREAIKYFVENDIKGNVINMSSVHEVIPWPLFVHYAASKGGIKLMTKTLALEYAPKGIRVNNIGPGAINTPINAEKFADPKQKADVESMIPMGYIGEPEEIAAVAAWLASKEASYVTGITLFADGGMTQYPSFQAGRG
B3: GlucDH_E170K_K252L (protein)
chain: MYPDLKGKVVAITGAASGLGKAMAIRFGKEQAKVVINYYSNKQDPNEVKEEVIKAGGEAVVVQGDVTKEEDVKNIVQTAIKEFGTLDIMINNAGLENPVPSHEMPLKDWDKVIGTNLTGAFLGSREAIKYFVENDIKGNVINMSSVHEVIPWPLFVHYAASKGGIKLMTKTLALEYAPKGIRVNNIGPGAINTPINAEKFADPKQKADVESMIPMGYIGEPEEIAAVAVWLASKESSYVTGITLFADGGMTLYPSFQAGRG
modifications: Mutant of glucose dehydrogenase from Bacillus subtilis

Legend:
Format in all cases: biochemical
[1] = target: T1, glucose dehydrogenase from Bacillus subtilis (Bacillus subtilis, UniProt P12310, A229V/A236S/Q252K); conditions: test strips, coenzyme NAD, blood with adjusted glucose values; 1556.2 to 25.10 kU/100 g mass
[2] = target: T1, glucose dehydrogenase from Bacillus subtilis; conditions: enzyme used in the test strips; coenzyme NAD
[3] = system: glucose dehydrogenase from Bacillus subtilis; conditions: for activity, U/mg enzyme / activity, U/mg lyophilisate: cuvette, 25° C., 340 nm; for % U/mg lyophilisate relative to NAD: coenzyme carbaNAD relative to NAD; for activity with carbaNAD compared with activity with NAD: standardized conditions in a cuvette
[4] = system: glucose dehydrogenase from Bacillus subtilis; assay: Enzyme activity before and after temperature stress (stress test) of clones; conditions: stress test: 30 min at 50° C.; tested in Escherichia coli XL1blue MRF′
Description: The PCR product obtained was transformed into Escherichia coli XL1blue MRF′. The cells were plated out, clones containing plasmid were cultured overnight and the enzyme activity was determined before and after temperature stress (stress test: 30 min at 50° C.).

[5] = target: T2, glucose dehydrogenase from Bacillus subtilis (Bacillus subtilis, UniProt P12310, A229V/A236S/E170K/Q252L); conditions: test strips, coenzyme carbaNAD, 4.60 kU/100 g mass; versus all wild type/NAD formulations of table 3
[6] = target: T2, glucose dehydrogenase from Bacillus subtilis; conditions: enzyme used in the test strips; coenzyme carbaNAD

Molecule | kinetics of the conversion of glucose [1] | lyophilisate activity (U/mg) [2] [U/mg] | Vmax (U/mg lyophilsate) [3] | Km ([3]; coenzyme NAD) [µM] | activity, U/mg enzyme ([3]; coenzyme NAD) [U/mg enzyme] | activity, U/mg lyophilisate ([3]; coenzyme NAD) [U/mg lyophilisate] | Km ([3]; coenzyme carbaNAD) [µM] | Vmax (U/mg lyophilisate) ([3]; coenzyme carbaNAD) | % U/mg lyophilisate relative to NAD [3] [%] | activity, U/mg enzyme ([3]; coenzyme carbaNAD) [U/mg enzyme] | activity, U/mg lyophilisate ([3]; coenzyme carbaNAD) [U/mg lyophilisate] | activity with carbaNAD compared with activity with NAD [3] | residual activity after stress (%) [4] [%] | kinetics of the conversion of glucose [5] | lyophilisate activity (U/mg) [6] [U/mg]
B1 | worsened with a decreasing enzyme content | 251 | 122 | 80 | 484 | 203 | 300 | 3 | 1.7 | 8.2 | 3.4 | two orders of magnitude lower | 23 | – | –
B2 | – | – | – | – | – | – | – | – | – | – | – | – | 80 | – | –
B3 | – | – | 144 | 70 | 270 | 167 | 1400 | 13 | 1.4 | 3.7 | 2.3 | about two orders of magnitude lower | 130 | better kinetics | 2.3
